Results reported in publication PMC5028025.

Experiments:
[1] = biological target: Synechococcus sp. phage S-ShM2 18 kDa small heat shock protein (HspSP-ShM2) (cyanophage S-ShM2 (Synechococcus sp. phage)); test: SEC; Superdex 200 Increase 10/300 GL, TEN buffer (50 mM Tris-HCl pH 8.0, 0.1 mM EDTA, 150 mM NaCl) without detergent, room temperature, 0.5 ml/min; HspSP-ShM2 alone at 30 and 60 uM (the ~200 kDa species only at 60 uM); masses from a standard curve
[2] = biological target: malate dehydrogenase (UniProt P00346)
[3] = biological target: citrate synthase (UniProt P00889)
[4] = biological target: luciferase [luciferase: P08659]
[5] = biological target: citrate synthase (UniProt P00889); remark: listed apart in the source

Chain of UniProt P00889 (P00889 28-464): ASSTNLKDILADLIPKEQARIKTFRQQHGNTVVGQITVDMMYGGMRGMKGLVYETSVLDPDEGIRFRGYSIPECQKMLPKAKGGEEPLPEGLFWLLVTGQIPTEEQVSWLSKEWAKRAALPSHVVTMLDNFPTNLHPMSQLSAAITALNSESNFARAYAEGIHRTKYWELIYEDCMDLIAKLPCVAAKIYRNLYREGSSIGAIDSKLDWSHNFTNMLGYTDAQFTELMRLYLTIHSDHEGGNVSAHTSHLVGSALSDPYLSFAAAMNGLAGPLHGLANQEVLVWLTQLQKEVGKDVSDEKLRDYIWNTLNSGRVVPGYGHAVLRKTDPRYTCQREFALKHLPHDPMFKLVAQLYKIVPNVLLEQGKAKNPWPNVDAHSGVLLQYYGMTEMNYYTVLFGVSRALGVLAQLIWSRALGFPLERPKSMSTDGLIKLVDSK
Chain of UniProt P00346 (P00346 25-338): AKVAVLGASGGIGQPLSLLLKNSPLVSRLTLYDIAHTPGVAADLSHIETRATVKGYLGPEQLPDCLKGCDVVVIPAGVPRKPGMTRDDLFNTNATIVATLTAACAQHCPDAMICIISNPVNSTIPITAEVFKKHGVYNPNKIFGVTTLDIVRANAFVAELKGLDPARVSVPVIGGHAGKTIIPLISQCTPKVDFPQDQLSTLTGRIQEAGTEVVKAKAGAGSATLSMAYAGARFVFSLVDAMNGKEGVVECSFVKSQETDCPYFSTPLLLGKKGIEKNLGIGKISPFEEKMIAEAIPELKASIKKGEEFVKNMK

Synechococcus sp. phage S-ShM2 18 kDa small heat shock protein (HspSP-ShM2) (natural protein)
stoichiometry N [1]: 12 | percent of heat-induced aggregation of MDH (light scattering at 320 nm, 90 min at 45°C, MDH alone = 100%) at 6:1 and 12:1 HspSP-ShM2:MDH (26.9 and 6.5%) [2]: 26.9% | percent of heat-induced aggregation of CS (light scattering at 320 nm, 90 min at 45°C, CS alone = 100%) at 5:1 and 10:1 HspSP-ShM2:CS (41.6 and 8.17%) [3]: 41.6% | percent of heat-induced aggregation of Luc (light scattering at 320 nm, 30 min at 42°C, Luc alone = 100%) at 6:1 and 12:1 HspSP-ShM2:Luc (45.8 and 6.4%) [4]: 45.8% | decrease of the ability to prevent heat-induced aggregation of CS in the presence of 0.23 mM Triton X-100, at 5:1 and 10:1 HspSP-ShM2:CS (20% and 12%) [5]: 20%
